The values below come from publication PMC4146615.

Series [1] deals with T1, SoxR (Streptomyces coelicolor) (UniProt Q9S255).
T1 sequence: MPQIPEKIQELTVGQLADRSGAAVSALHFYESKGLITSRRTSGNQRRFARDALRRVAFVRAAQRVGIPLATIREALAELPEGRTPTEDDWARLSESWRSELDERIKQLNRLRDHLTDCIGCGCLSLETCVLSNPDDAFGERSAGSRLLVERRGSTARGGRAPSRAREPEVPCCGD
Nature of the series: EMSA. Conditions: EMSA: 10 mM Tris-HCl pH 8, 75 mM KCl, 0.1 mM DTT, 10% glycerol, 2 mM MgCl2, 0.1 ug poly(dI)-poly(dC), 2 mM dAMP, 30 uL, 6 fmol probe, SoxR 0-20 nM, 15 min …. For orientation: Mobility shift assays separate free from complexed probe on a gel.

For series [2], the target named is T1, SoxR (Streptomyces coelicolor). Nature of the series: competition. The conditions noted are these: EMSA: 10 mM Tris-HCl pH 8, 75 mM KCl, 0.1 mM DTT, 10% glycerol, 2 mM MgCl2, 0.1 ug poly(dI)-poly(dC), 2 mM dAMP, 30 uL, 6 fmol probe, SoxR 0-20 nM, 15 min ….

Take “GACAGTCGTAGGCGGTTCCGCCCCTCCATACGTCACCCCTTGCCGACCGGCCCGACTCCACCGCGGACGACGGACGAGCCTTGACCTCGACCGGACTTGAGGTTGGAGGCTGGGCGGGATGTCGCCTCCAGTGAAGGGTGCTGCTCATGCATGCGATCCACGTGGCCTCGTTCGGTGCTCCGGACGTGCTGAGCCTGGTC (double strand) [SCO0320ext promoter probe]”: the K_half result in series [1] is listed as “binds”. For the same substance, the binding result in series [2] is recorded as “binds”.

The substance SCO0321 upstream probe had a Kd in series [1] of more than 20 nM.

The substance SCO1177 upstream probe showed a Kd in series [1] of more than 20 nM.

ecaD (SCO4266) promoter probe gave a Kd in series [1] of 5 nM.

A word on the Kd: it is the equilibrium constant for the complex coming apart. A lower Kd goes with a tighter complex.
